T1: RsHMT (Raphanus sativus, UniProt C6L2E7)
T1 sequence (C6L2E7 1-226): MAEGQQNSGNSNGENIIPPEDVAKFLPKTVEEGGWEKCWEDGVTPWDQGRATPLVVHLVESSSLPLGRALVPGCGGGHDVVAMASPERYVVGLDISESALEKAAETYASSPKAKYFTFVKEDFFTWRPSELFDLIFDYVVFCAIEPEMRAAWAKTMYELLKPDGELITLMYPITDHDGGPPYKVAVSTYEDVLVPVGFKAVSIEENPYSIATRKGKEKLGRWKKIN

T2: AtHMT (Arabidopsis thaliana, UniProt Q0WP12, V140T)
T2 sequence (Q0WP12 1-227 V140T): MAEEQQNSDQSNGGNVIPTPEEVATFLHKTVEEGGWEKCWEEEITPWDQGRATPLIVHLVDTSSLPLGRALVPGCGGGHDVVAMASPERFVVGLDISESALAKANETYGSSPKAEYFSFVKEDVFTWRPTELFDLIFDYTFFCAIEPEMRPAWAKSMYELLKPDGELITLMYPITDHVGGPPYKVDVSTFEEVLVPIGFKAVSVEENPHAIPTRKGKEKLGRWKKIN

T3: AtHMT (Arabidopsis thaliana, UniProt Q0WP12)
T3 sequence (Q0WP12 1-227): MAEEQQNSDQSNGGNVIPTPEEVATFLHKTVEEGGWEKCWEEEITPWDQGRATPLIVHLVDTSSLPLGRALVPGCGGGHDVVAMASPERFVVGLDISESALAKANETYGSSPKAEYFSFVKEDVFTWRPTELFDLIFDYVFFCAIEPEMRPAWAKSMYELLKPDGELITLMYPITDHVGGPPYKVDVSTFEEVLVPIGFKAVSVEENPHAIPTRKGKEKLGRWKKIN


Tests used:
RsHMT = molecular target: T1, RsHMT; experiment: alkylation of SAH, specific activity; assay type: biochemical; settings: co-substrate SAH
AtHMT [1] = molecular target: T2, AtHMT; experiment: kinetic analysis of methyl transfer to SAH; assay type: biochemical; settings: read-out: Methyltransferase activity / K M, MeI; co-substrate SAH
AtHMT [2] = molecular target: T3, AtHMT; experiment: kinetic analysis of methyl transfer to SAH; assay type: biochemical; settings: read-out: Methyltransferase activity / K M, MeI; co-substrate SAH
[3] = substrate: CCI; experiment: kinetic analysis of ethyl transfer to SAH; assay type: biochemical, Arabidopsis thaliana; settings: co-substrate SAH

Molecule | alkylation of SAH, specific activity (RsHMT) | Km (AtHMT [1]) | Km (AtHMT [2]) | Km [3] | kcat [3] | kcat/Km [3]
CI [methyl iodide] | All three HMTs were active using methyl iodide | 4.7 ± 0.76 mM | 1.43 ± 0.19 mM | – | – | –
CCI [ethyl iodide] | all three enzymes had promiscuous activity against ethyl iodide | – | – | – | – | –
AtHMT (Arabidopsis thaliana) (protein) MAEEQQNSDQSNGGNVIPTPEEVATFLHKTVEEGGWEKCWEEEITPWDQGRATPLIVHLVDTSSLPLGRALVPGCGGGHDVVAMASPERFVVGLDISESALAKANETYGSSPKAEYFSFVKEDVFTWRPTELFDLIFDYVFFCAIEPEMRPAWAKSMYELLKPDGELITLMYPITDHVGGPPYKVDVSTFEEVLVPIGFKAVSVEENPHAIPTRKGKEKLGRWKKIN | – | – | – | 9.36 ± 1.66 mM | 0.006 ± 0.0005 s⁻¹ | 0.633 M⁻¹ s⁻¹
AtHMT (Arabidopsis thaliana; V140T) (protein) MAEEQQNSDQSNGGNVIPTPEEVATFLHKTVEEGGWEKCWEEEITPWDQGRATPLIVHLVDTSSLPLGRALVPGCGGGHDVVAMASPERFVVGLDISESALAKANETYGSSPKAEYFSFVKEDVFTWRPTELFDLIFDYTFFCAIEPEMRPAWAKSMYELLKPDGELITLMYPITDHVGGPPYKVDVSTFEEVLVPIGFKAVSVEENPHAIPTRKGKEKLGRWKKIN | – | – | – | 11.14 ± 1.52 mM | 0.0397 ± 0.00267 s⁻¹ | 3.57 M⁻¹ s⁻¹

Source: article PMC7839550 (Angewandte Chemie (International Ed. in English), 2020)
